test: soluble on expression in E. coli; label from the status in PepcDB or PDB records

Sequence | soluble on expression in E. coli
MGSDKIHHHHHHMEGKALRQGSIAGKGAPRNTASLIQYAQDHFDAAHFQGLMAIYGRPLADRAVALTHDRGRRVVDFVRCSYLGLDNHPQIVAGAVEAMKEYGTLHWSCARTRLNFSILGDLEAALSELFDARVITYTTVLAANMGALPLIASGHLTGGVKPLMVFDRLAHATLAFHKGTIAAETRVETIAHNDLEALEMLCRTNGSVAFVCDGVYSMGGSADLARLRRLQERYGLFLYIDDAHGVSIFGKHGEGFARSQMSGPLGERTIVAASLGKGFGASGGLIMLGTARQEELFRRFAVAHAFSASLNVAAIGAARASQQLHLTEELTELQQRLRSRTALFDSLVPTEQQGSPLPIRTVEIGDEMTAIGAARALLDRGFYTSAIFFPTVARGRAGLRLCPTAGHSEDDIRGLGIAIQDVLKEISGR | not soluble
QHQEAGAGDLCALCGEHLYVLERLCVNGHFFHRSCFRCHTCEATLWPGGYEQHPGDGHFYCLQHLPQTD | soluble
MGSDKIHHHHHHMSSLQISQGTFRLSDTKTLKIDHLSVAAGESWAFVGSNGSGKSALARALAGDLPLLSGQRESHFSRVTRLSFEQLQKLVSDEWQRNNTDLLSPGEEDTGRTTAEIIQDEVKDPARCARLAEQFGISALLDRRFKYLSTGETRKTLLCQALMTDPQLLILDEPFDGLDVNSRQQLAALLADLHSAGITLVLVLNRFDEIPEFVQFAGVLADCTLSETGEKSSLLQQALVAQLAHSEKLDGITLPEPDVPPARHALADSAPRIVLNDGVVSYNDRPVINHLSWTVNPGEHWQIVGPNGAGKSTLLSLVTGDHPQGYSNDLTLFGRRRGSGETIWDIKKHIGYVSSSLHLDYRVSTNVRNVILSGYFDSIGIYQAVSDKQHKLVQQWLDILGIDKRTADAPFHSLSWGQQRLALIVRALVKHPTLLILDEPLQGLDPLNRQLVRRFVDVLIGEGATQLLFVSHHAEDAPDCITHRLAFVPSGDGYTYQLGPVA | not soluble
MSLSCPRCGWVHYINPLPVAIALTVNRNNELLMIRRAHEPAFNEWALPGGFLEAGERPEEGCLRELFEETSLEGTIDKLIGVWHLESGLYGSLIAVAYRVIAAHERISINHEVFEAGFYRPDNMPPVRIPLHRQIIAESRWPERDLSLTEGHHHHHH | not soluble
MIFERIKSEGLAHLSYFVGSGNEAIVIDPRRDCQIYFDIARREGMKIKYIFETHRNEDYVIGSLELKELTDAEIYHGKGVDFKYGIFVSDGQEFNFGSMKLTALHTPGHTDESMSYALTYPESGKAPLMVFTGDALFVGDVGRTDLYGPEEIPRMAANLYESIFNKILPLGDGVILCPAHGAGSLCGGAISKREYSTLGLERIQNPALQRTDKEEFIKFKLEEKLEFPPYFKKMEQYNLQGPPLLKGLPVPELLFPKEFVKEMEKGAMVVDTRMPHSFGGAHIKGSYGIWLKGLPYYAGWVLPYDKPILLVLEEKDQLETAVSYLVRIGYDSIAGFLNGGISSWYMKALPVESLNLISVQSLKDKIEKNEEMVILDVRRDEEWEKGHIEGARHVYVGHLEENLDKVPRNSPIIVYCDSSRRSNIAASILKKKGYDMVYNVLGSMTAWKNAGYKVVKLEHHHHHH | soluble
GFNPIIGTGISYKLSKKWSLAAEAFYSRRKVTYTSEVKDQNYIDRNTIIINNNPVTFEVSTTFTGTTKGEFDIHYLEFPLLAQYAIGNNWQIHAGMYYSWAFSKTNKGTATGIIGRTDISNPNTVTDKEYNYSKEVNSRYYGFVAGAQYQLSPAVALDLRATYSCKSLYKEDWEGVPYTLKDLYVQFTVKYFFIRAKD | not soluble
MYARYAGLIFDMDGTLLDTEPTHRKAWREVLGRYGLRFDEQAMVALNGSPTWLIAQSIIELNHADLDPLSLAREKTDAVKSILLDCVEPLPLVEVVKAWHGRRPMSVGTGSESAIAEALLAHLGLRRYFDAVVAADHVQHHKPAPDTFLLCAQRMGVMPTQCVVFEDADFGLQAARAAGMDAVDVRLL | not soluble
MSLDPFSIVQDFRSIAGEEALEIAESGEENDNEQFQNWELEAKFWDLVGLLVEYRTSETVDKDINVHSYNSNVVFQKQLLQSNKGIYEIWLIKSWLEANIGIPERPSSLCTTKWSSSMIAGTVKSMDSDSILRDPTTNLQPDDRQNDHAFFVYAFRLLLAGQFEKLTEECEFTDNLTLNLILRGMESYVDPNVDTDMTDEYASQQGIKKHALWRRSVYALSQDPLLDPYEAAIYTYLSGDSPTNLRIDGLDWETELLIYVNQIWNVTMENYLIEHGRVDNDELITDMDTACPSLSQVLNILAAKYPDESEHPIRVLTASVLLNTIEPVMKSSTDMLLDVIKGRDEDNALFNESYLLRILTNLTIFLDIVSPDTIDISNKSKLLTSYISLLSYYGLYDVIPVFVSFLSQEEIVETYSFFLTNLIDPNLRQKQMEISKYLGLPIANILRRTAQRIFEETDQYYIVDSDIELTNEVSEVDQRLMNGVEWLIENGLYTDSIDTIIALSRRFLINGKVKALELFVDNHDVPNLLKEYQLERLSSQEEDHDLKTTELLQYTSLLSTFKKQEEWVKSSQLFNTESNLRSLIKQFKGFSNTIIKLVTTFLVDLIDNEEVNDSDVLYEIRALYTPFLIMELHNNLISASENLKVSTFVQEAIDLSILVANETDKIYLLFQSNGKLTTYLQMVAKASALFGREGHHHHHH | not soluble
MPKPYVAINMAELKNEPKTFEMFASVGPKVCMVTARHPGFVGFQNHIQIGILPFGNRYGGAKMDMTKESSTVRVLQYTFWKDWKDHEEMHRQNWSYLFRLCYSCASQMIWGPWEPIYEIIYANMPINTEMTDFTAVVGKKFAEGKPLDIPVISQPYGKRVVAFAEHSVIPGKEKQFEDAIVRTLEMLKKAPGFLGAMVLKEIGVSGIGSMQFGAKGFHQVLENPGSLEPDPNNVMYSVPEAKNTPQQYIVHVEWANTDALMFGMGRVLLYPELRQVHDEVLDTLVYGPYIRILNPMMEGTFWREYLNEQAWRHPQFGG | soluble
MKKAAVSGRLYEVFDVFADKALAGNPLAIVHDCEGLTDACMQAIAREFNLSETVFIHAPANPAHEASVRIFTPAYELPFAGHPTVGAAVSLARRQKTGDETDRLVTLEEKVGIVRCGVILGENSAFAEFDLPRLPEQVDVKIEREEAAAAIGLGTHEIGFENHVPGVWSAGTPCLLVPVHNLIAAAKVSIDPVYVSESLPHVGGRPLPIYVYCRETILFNSHFHARMFVIGANVYEDPATGSAVAAFAGMIQQNDKPVDGSSQWWIEQGMEMGRPSRIRLELDVSKQKLVSARIGGTAVKIAEGRLFVLEHHHHHH | not soluble
MAHHHHHHMSSTNPSGCAGLVAASVTTAASTGTTAAATLAARSPTPPSVPASNSNNSGPGAAVASAPARWRIPSFRPQEYLRGYLFGGVGMGVPELQQYVGKVEPMIREMLEHTQQVHSIHSLRSHFQKSDEPGDEEVVLRWPSHLLQFMEFYNTTRALEDPENQDAGVKEAYLGLMRRLYYTEPRRRDCIPTKYLDPRSLLLVRMWWSMDAAQRKQWPLSLMDHKALNVIQIKDRYLCSYVMTAMQAKQYLMRLVARPEMRAMIDQWRRERNDGSTGAGSPQRSKL | soluble
VTNWWSGDKRYQRFIERLLSVFEGRVLELPAESHGNVAVMAFQSSPKEQNIDKLKKRADKLSNAYGLDFHRMLAGLKASNPNNGKHFHL | not soluble
MHAGEAVQQLKKAFETVASFDFRDALSKASTPVTVVATNGPFGLAGLTCSAVCSVCDRPPTVLLCINRKSYAAGIIKSNGVLSVNWLAAGQAVISQTFAGVGSVPMEERFADKGWQTIATGAPYRMDAAVSFDCTIANIVDVGSHSVIFAEVVARNHAEECTPLIYHRRQYATTRSLAEHHHHHH | soluble
MSQGDSNPAAIPHAAEDIQGDDRWMSQHNRFVLDCKDKEPDVLFVGDSMVQLMQQYEIWRELFSPLHALNFGIGGDTTRHVLWRLKNGELENIKPKVIVVWVGTNNHENTAEEVAGGIEAIVQLINTRQPQAKIIVLGLLPRGEKPNPLRQKNAKVNQLLKVSLPKLANVQLLDTDGGFVHSDGAISCHDMFDFLHLTGGGYAKICKPLHELIMQLLEETPEEKQTTIA | soluble

— the DeepSol protein solubility set
